The record followed here is US20110262445A1 (CEPHALON AUSTRALIA, published 2011).

Usually EC50 (read off the curve) stands for the concentration needed to bring the measured effect to its halfway point. High values mean lower potency in that assay, low ones higher potency in that assay. Usually Kd stands for the free concentration of one partner at which half of the binding sites on the other are occupied at equilibrium, for simple one-to-one binding. As usually defined, the koff is a measure of how fast the partners let go of each other. A lower koff goes with slow dissociation. What is called kon is the second-order rate constant of association. A low value points to slow association.

In assay [1] the target is T1, human IL-12 (human, UniProt P29460 23-328; P29459 23-219).
T1 construct: Recombinant (Peprotech); FLAG-tagged IL-12 in the flow cytometry assays, biotinylated in the IL-12Rβ2 assay; also called hIL-12
T1 sequence 1: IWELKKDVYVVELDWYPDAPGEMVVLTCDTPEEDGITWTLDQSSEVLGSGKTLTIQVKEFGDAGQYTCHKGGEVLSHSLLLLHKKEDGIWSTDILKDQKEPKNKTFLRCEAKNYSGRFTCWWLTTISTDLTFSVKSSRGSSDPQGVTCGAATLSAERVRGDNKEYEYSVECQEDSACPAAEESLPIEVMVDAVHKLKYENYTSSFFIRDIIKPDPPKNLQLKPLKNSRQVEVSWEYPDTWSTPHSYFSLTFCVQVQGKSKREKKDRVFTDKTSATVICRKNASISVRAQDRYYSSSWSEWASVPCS
T1 sequence 2: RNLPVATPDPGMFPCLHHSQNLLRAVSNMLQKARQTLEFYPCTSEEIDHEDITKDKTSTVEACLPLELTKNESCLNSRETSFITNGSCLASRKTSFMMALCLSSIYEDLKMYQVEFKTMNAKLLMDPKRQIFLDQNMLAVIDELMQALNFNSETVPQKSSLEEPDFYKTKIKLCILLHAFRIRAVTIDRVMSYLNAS
The experiment in a line: sandwich ELISA: IL-12 held by coated PMA202, Antibody 136 titrated, anti-human Fc-HRP. The essentials: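 Capture antibody at 1 μg/mL was coated overnight at 4° C and blocked with 1% BSA. IL-12 at 0.5 μg/ml was bound for 1 hour at 25° C, followed by half-log serial dilutions of test antibody for 1 hour. Bound antibody was detected with goat anti-human IgG Fc-HRP (1:2000) and TMB, stopped with 1 M HCl, and optical density read at 450 nm (reference 620 nm). EC50 was read off the curve.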
A general note: An ELISA detects its analyte on a solid surface through an enzyme-linked reagent.

In assay [2] the target is T2, human IL-23 (human, UniProt P29460 23-328; Q9NPF7 20-189).
T2 construct: Recombinant (Ebioscience); HIS-tagged in flow cytometry, biotinylated in some assays; also called hIL-23; rhIL-23
T2 sequence 1: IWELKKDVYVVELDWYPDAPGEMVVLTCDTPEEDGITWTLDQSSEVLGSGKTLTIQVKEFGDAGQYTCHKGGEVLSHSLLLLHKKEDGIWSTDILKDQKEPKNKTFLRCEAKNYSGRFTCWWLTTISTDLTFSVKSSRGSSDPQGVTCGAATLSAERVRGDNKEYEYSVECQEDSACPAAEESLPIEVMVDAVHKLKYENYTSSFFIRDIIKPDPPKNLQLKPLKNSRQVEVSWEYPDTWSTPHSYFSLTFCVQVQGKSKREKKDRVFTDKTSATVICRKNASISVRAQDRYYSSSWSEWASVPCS
T2 sequence 2: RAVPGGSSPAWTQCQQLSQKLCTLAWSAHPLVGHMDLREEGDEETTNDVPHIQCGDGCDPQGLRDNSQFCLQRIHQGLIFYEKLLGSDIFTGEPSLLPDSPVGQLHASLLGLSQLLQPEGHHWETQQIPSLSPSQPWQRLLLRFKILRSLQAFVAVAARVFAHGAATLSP
The experiment in a line: neutralization ELISA: IL-23 preincubated with antibody, its binding to coated IL-23R is blocked. The essentials: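 The IC50 was taken from a curve in a plate assay in which biotinylated IL-23, preincubated with titrated antibody, bound His-tagged IL-23R coated on the wells. The receptor, made in HEK-293E cells, was coated in carbonate buffer overnight at 4° C and blocked with 1% BSA. The IL-23 was used at 50 ng/ml, and the IL-23 and antibody mix stayed in the wells for 2 hours at 25° C. Signal came from Streptavidin HRP at 1:5000 with TMB, read at 450 nm with a 620 nm reference.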

The target in assay [3] is T1, human IL-12. The assay is described as follows: neutralization ELISA: IL-12 preincubated with antibody, its binding to coated IL-12Rβ2/Fc is blocked. The procedure, abridged: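 After a 2-hour preincubation with titrated antibody, biotinylated IL-12 was added for 2 hours at 25° C to wells coated overnight at 4° C with IL-12Rβ2/Fc chimera at 5 ug/ml in carbonate buffer and blocked with 1% BSA for 1 hour at 25° C. Signal came from Streptavidin HRP 1:5000 with TMB, stopped with 1M HCl, at 450 nm with a 620 nm reference. IC50 values were read from the curve.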

Assay [4] has as its target T1, human IL-12. The assay is described as follows: SPR, IgG on Protein A. Here is the method:
(§1) Using SPR technology the kₐ and kd and the KD of various humanized antibodies was determined.
(§2) Using a SPR 3000, Protein A was immobilized onto FC1 and FC2 (or alternatively FC3 and FC4) of a CM5 research grade sensor chip using amine coupling, giving approximately […] RU. FC1 was used a blank throughout the experiments. The experiments were run in HBS-P buffer (SPR). At a flow rate of 20 μl/min, 20 μl of 5 μg/mL of antibody was passed over FC2. IL-12, IL-23 or IL-12p40 (Peprotech) were passed over the surface of FC1 and FC2 at concentrations ranging from 66 nM to 2 nM. Regeneration of the surface was performed using 10 mM Glycine, pH 1.0. The sensorgram data from FC2 was subtracted from FC1 and a buffer only control. The curves were fitted using a 1:1 Langmuir equation to generate the kd, ka and KD values. All curves were fitted with a χ² of less then 2.0 where possible.
(In general: SPR reads the build-up and loss of mass on a sensor chip optically.)

The target of assay [5] is T2, human IL-23. The assay is described as follows: SPR, IgG on Protein A. As to the method:
as §1, §2

The target of assay [6] is T2, human IL-23. The experiment in a line: sandwich ELISA: IL-23 held by coated PMA202, Antibody 136 titrated, anti-human Fc-HRP.
Assay [7] concerns the target T3, IL-23R extracellular domain (human, UniProt Q5VWK5 24-355).
T3 construct: Methods print IL-23/Fc Chimera for the coated receptor; also called IL-23R-HIS; IL-23/Fc Chimera (so in the source); not shown: Fc (R&D Systems chimera) or HIS tag (in-house IL-23R-HIS)
T3 sequence: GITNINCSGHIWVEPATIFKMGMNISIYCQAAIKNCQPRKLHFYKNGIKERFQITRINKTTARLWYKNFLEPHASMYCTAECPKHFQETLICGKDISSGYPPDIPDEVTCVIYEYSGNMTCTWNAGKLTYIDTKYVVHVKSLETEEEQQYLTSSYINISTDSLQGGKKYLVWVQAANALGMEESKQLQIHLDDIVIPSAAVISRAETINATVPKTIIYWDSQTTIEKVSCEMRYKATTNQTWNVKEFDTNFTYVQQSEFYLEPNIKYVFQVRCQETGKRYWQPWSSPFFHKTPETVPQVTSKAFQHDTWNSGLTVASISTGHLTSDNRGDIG
The experiment in a line: ELISA, IL-23R coated. As to the method:
(§3) The plate was then washed three times with wash buffer. The wells were then blocked by adding 200 μl of blocking buffer to each well and incubating the plate at 25° C. for 1 hour. The supernatant was diluted in antibody diluent sufficient to generate a titration curve and 100 µl was added to wells then incubated for 1 hour at 25° C. The plate was then washed as previously described and 100 μl of Monoclonal Anti-FLAG® M2-HRP (Sigma-Aldrich®) at 1:1000 in antibody diluent was used to detect bound cytokine. After incubation at 25° C. for 1 hour the plate was washed again as previously described. 100 μl TMB substrate solution (Sigma-Aldrich®) was added to each well and the colour allowed to develop for 5 minutes. 100 μl of 1M HCl was added to terminate the colour development reaction and absorbance was determined at 450 nm (ref. 620 nm).

Assay [8] concerns the target T4, IL-12Rβ1/Fc Chimera (human, UniProt P42701 25-545).
T4 construct: not shown: Fc of the bought R&D Systems chimera
The experiment in a line: ELISA, IL-12Rβ1 coated. Here is the method:
as §3

B1: Antibody 136 (antibody, human IgG1, kappa, V domains shown)
VH: EVQLVQSGAEVKKPGATVKISCKASGYTFSDYYLHWVRQAPEKGLEWMGWIDPENGDTEYAPKFQGRVTITADTSTDTGYLELSSLRSEDTAVYYCAANKELRYFDVWGQGTLVTVSS
VL: DIQMTQSPSSVSASVGDRVTITCRASQSISINLHWYQQKPGKAPKLLIYFASQSISGVPSRFSGSGSGTDFSLTINSLQTEDFATYYCQQSNSFPLTFGGGTKVEIKR
notes: Humanized PMA204 (1RZ7 framework)
On to B1, for which the entries for the “EC50 (read off the curve)” value in assay [1] and in assay [6] were approximately 0.1 µg/mL and approximately 0.06 µg/mL, respectively. The “IC50 (read off the curve)” value in assay [2] was approximately 1 µg/mL; in assay [3], approximately 0.4 µg/mL. Also, the figures for the Kd in assay [4] and in assay [5] were 0.197 nM and 0.105 nM, respectively. For the same molecule, the koff in assay [4] amounted to 0.000997 s⁻¹; in assay [5], 0.000795 s⁻¹. For the same molecule, the figures for the kon in assay [4] and in assay [5] were 5.05e+06 M⁻¹ s⁻¹ and 7.55e+06 M⁻¹ s⁻¹, respectively.

B2: IL-23 mutant D265A (ligand)
chain: IWELKKDVYVVELDWYPDAPGEMVVLTCDTPEEDGITWTLDQSSEVLGSGKTLTIQVKEFGDAGQYTCHKGGEVLSHSLLLLHKKEDGIWSTDILKDQKEPKNKTFLRCEAKNYSGRFTCWWLTTISTDLTFSVKSSRGSSDPQGVTCGAATLSAERVRGDNKEYEYSVECQEDSACPAAEESLPIEVMVDAVHKLKYENYTSSFFIRDIIKPDPPKNLQLKPLKNSRQVEVSWEYPDTWSTPHSYFSLTFCVQVQGKSKREKKARVFTDKTSATVICRKNASISVRAQDRYYSSSWSEWASVPCSGSGSSRGGSGSGGSGGGGSKLRAVPGGSSPAWTQCQQLSQKLCTLAWSAHPLVGHMDLREEGDEETTNDVPHIQCGDGCDPQGLRDNSQFCLQRIHQGLIFYEKLLGSDIFTGEPSLLPDSPVGQLHASLLGLSQLLQPEGHHWETQQIPSLSPSQPWQRLLLRFKILRSLQAFVAVAARVFAHGAATLSP
Regarding B2, the binding result in assay [7] and in assay [8] was “binds” each time.

B3: IL-23 mutant R266A (ligand)
chain: IWELKKDVYVVELDWYPDAPGEMVVLTCDTPEEDGITWTLDQSSEVLGSGKTLTIQVKEFGDAGQYTCHKGGEVLSHSLLLLHKKEDGIWSTDILKDQKEPKNKTFLRCEAKNYSGRFTCWWLTTISTDLTFSVKSSRGSSDPQGVTCGAATLSAERVRGDNKEYEYSVECQEDSACPAAEESLPIEVMVDAVHKLKYENYTSSFFIRDIIKPDPPKNLQLKPLKNSRQVEVSWEYPDTWSTPHSYFSLTFCVQVQGKSKREKKDAVFTDKTSATVICRKNASISVRAQDRYYSSSWSEWASVPCSGSGSSRGGSGSGGSGGGGSKLRAVPGGSSPAWTQCQQLSQKLCTLAWSAHPLVGHMDLREEGDEETTNDVPHIQCGDGCDPQGLRDNSQFCLQRIHQGLIFYEKLLGSDIFTGEPSLLPDSPVGQLHASLLGLSQLLQPEGHHWETQQIPSLSPSQPWQRLLLRFKILRSLQAFVAVAARVFAHGAATLSP
Regarding B3, the binding result in assay [7] and in assay [8] was “binds” throughout.
